# Source: US20230073067A1 (INSTITUTE OF MICROBIOLOGY CHINESE ACADEMY OF SCIENCE, published 2023)
# B1: GH12 antibody (antibody, human IgG1, lambda, V domains shown)
# VH: EVQLVESGGGLVQPGGSLRLSCAASGFTFSSYWMSWVRQAPGKGLEWVANIKQDGSEKYYVDSVKGRFTISRDNAKNSLYLQMNSLRAEDTAVYYCTRAGWVRGAFDIWGQGTMVTVSS
# VL: NFMLTQPHSVSESPGKTVTISCTGSSGSIASNYVQWYQQRPGSAPTTVIYEDNQRPSGVPDRFSGSIDSSSNSASLTISGLKTEDEADYYCQSYDSSNLWVFGGGTKLTVLG
# notes: also called human antibody GH12
# Target: 2019-nCoV RBD protein with C-terminal hexa-His tag (2019-nCoV (SARS-CoV-2), UniProt P0DTC2 319-541)
# Test: SPR, Biacore 8K, antibody captured on protein A chip, RBD as analyte
# Experimental: Surface plasmon resonance analysis was performed using Biacore 8K (Biacore Inc.).
# Binding kinetic constants were calculated using BIAevaluation software 8K (Biacore, inc.) software.
binder,measurement,value
B1,Kd,5.87 nM
same,koff,0.0173 s⁻¹
same,kon,2.95e+06 M⁻¹ s⁻¹
